This is an account of results in US20190269788A1 (PIERRE FABRE MEDICAMENT, published 2019).

Assay [1] has as its target T1, human IGF-1R, native, on MCF-7 cells or on hIGF-1R transfected cells (human, UniProt P08069 31-1367). Description: cell-based or functional assay.
Assay [2] deals with T1, human IGF-1R, native, on MCF-7 cells or …. Description: cell-based or functional assay. The source holds these as a separate data set.
Assay [3] shares this target. Briefly: cell-based or functional assay. The source holds these as a separate data set.
Assay [4] concerns the target T2, rhAxl-Fc protein (R and D Systems, cat No 154-AL) (human, UniProt P30530 26-451).
T2 construct: Bought; also called recombinant human Axl-Fc
Description: ELISA on coated rhAxl-Fc, anti-mouse IgG-HRP, TMB. As for the experimental part:
(§1) Then 1/2 serial dilutions were done over 12 columns. Plates were washed and a goat anti-mouse (Jackson) specific IgG-HRP was added for 1 h at 37° C. Reaction development was performed using the TMB substrate solution. […] Coating controls were performed in presence of a goat anti-human IgG Fc polyclonal serum labelled with HRP (Jackson, ref 109-035-098) and/or in presence of a HRP-coupled anti-Histidine antibody (R and D Systems, ref: MAB050H).
(In general: An ELISA detects its analyte on a solid surface through an enzyme-linked reagent.)

In assay [5] the target is T3, rhDtk-Fc (R and D Systems, cat No 859-DK) (human, UniProt Q06418 41-428, limits assumed).
T3 construct: Bought
T3 sequence (looked up): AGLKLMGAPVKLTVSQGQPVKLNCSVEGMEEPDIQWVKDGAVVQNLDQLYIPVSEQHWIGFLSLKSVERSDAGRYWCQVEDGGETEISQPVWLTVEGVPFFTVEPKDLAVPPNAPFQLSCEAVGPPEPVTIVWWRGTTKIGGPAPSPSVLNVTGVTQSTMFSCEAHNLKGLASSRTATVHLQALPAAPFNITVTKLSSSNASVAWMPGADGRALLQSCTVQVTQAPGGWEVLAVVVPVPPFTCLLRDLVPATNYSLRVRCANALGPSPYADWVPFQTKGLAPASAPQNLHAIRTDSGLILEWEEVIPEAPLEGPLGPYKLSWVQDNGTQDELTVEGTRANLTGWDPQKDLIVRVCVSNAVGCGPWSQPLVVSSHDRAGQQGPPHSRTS
Description: ELISA on coated rhDtk-Fc, anti-mouse IgG-HRP, TMB. As for the experimental part:
as §1

The target of assay [6] is T4, rhMer-Fc (R and D Systems, cat No 891-MR) (human, UniProt Q12866 26-499, limits assumed).
T4 construct: Bought
T4 sequence (looked up): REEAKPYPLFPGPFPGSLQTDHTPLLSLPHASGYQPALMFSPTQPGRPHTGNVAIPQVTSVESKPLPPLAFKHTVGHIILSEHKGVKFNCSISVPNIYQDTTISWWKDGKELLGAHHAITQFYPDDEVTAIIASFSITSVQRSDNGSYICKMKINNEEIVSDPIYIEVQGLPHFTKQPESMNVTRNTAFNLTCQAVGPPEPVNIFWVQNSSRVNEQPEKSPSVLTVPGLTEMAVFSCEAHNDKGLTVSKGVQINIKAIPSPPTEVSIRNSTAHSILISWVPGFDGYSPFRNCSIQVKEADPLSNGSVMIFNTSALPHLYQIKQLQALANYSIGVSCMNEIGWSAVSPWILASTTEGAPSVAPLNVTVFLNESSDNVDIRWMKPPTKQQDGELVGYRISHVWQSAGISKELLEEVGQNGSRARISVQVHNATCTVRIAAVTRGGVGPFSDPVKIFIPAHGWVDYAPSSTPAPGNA
Description: ELISA on coated rhMer-Fc, anti-mouse IgG-HRP, TMB. Here is the method: as §1

Assay [7] addresses T5, human Axl receptor on human tumor cells (SN12C and other lines) (human, UniProt P30530 26-894).
T5 construct: also called membrane Axl receptor; cell-surface Axl
Description: FACS titration on SN12C cells, anti-mouse Alexa 488. As for the experimental part:
(§2) After 3 washes in phosphate-buffered saline (PBS) supplemented with 1% BSA and 0.01% NaN₃, cells were incubated with secondary antibody Goat anti-mouse Alexa 488 (1/500° dilution) for 20 minutes at 4° C. After 3 additional washes in PBS supplemented with 1% BSA and 0.1% NaN₃, cells were analyzed by FACS (Facscalibur, Becton-Dickinson). At least 5000 cells were assessed to calculate the mean value of fluorescence intensity.

In assay [8] the target is T5, human Axl receptor on human tumor cells …. Briefly: FACS titration on MDA-MB-231 cells, anti-mouse Alexa 488. As for the experimental part:
as §2

Positions count from the first letter of the chain named. Read-outs that look alike come from different tables or passages of the source.

T5 sequence (P30530 26-894 D266N limits assumed): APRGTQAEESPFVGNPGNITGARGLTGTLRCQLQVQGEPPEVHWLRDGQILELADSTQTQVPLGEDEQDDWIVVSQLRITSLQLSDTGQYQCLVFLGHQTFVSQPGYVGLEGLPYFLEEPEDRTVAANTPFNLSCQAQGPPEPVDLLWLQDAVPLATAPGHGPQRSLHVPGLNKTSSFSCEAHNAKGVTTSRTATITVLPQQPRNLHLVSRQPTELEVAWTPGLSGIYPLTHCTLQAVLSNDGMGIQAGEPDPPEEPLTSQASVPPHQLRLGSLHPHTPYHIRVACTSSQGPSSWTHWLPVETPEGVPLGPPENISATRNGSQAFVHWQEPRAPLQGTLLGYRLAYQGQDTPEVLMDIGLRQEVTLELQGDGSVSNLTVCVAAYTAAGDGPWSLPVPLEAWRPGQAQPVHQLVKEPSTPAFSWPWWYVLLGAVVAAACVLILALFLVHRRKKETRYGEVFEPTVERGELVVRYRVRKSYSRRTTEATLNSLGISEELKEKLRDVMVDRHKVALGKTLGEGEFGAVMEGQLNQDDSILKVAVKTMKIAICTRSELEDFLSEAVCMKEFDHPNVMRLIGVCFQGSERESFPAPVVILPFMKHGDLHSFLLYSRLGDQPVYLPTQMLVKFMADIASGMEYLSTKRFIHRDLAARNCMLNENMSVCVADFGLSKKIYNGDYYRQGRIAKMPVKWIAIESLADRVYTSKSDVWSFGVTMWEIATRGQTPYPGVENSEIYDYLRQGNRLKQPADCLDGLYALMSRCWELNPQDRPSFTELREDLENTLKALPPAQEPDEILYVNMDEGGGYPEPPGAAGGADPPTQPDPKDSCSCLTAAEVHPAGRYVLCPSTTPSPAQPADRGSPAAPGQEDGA
T2 sequence (P30530 26-451 D266N): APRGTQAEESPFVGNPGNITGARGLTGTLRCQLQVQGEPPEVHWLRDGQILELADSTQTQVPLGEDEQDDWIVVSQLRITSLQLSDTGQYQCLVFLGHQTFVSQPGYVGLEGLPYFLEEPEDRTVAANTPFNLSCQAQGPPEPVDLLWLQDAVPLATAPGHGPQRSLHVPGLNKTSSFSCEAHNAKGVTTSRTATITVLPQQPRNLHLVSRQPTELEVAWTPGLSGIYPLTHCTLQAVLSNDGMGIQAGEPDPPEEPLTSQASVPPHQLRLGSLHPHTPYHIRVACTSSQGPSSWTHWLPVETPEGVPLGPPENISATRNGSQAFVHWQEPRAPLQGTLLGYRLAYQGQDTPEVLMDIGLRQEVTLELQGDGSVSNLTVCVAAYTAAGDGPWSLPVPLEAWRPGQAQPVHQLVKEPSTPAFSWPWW

B1: c212A11 (antibody, human IgG1, kappa, V domains shown)
VH: QVQLQQSGPELVKPGASVKMSCKASGYTFTSYYIHWVKQRPGQGLEWIGWIWPGDGSTKYNEKFKGKTTLTADKSSSTAYMFLSSLTSEDSAVYFCASPMITPNYAMDYWGQGASVTVSS
VL: DIQMTQTTSSLSASLGDRVTISCRASQDINKYLNWYQQQPDGTVKLLIYYTSRLHSGVPSRFSGRGSGTDYSLTISNLEQEDIATYFCQQGSTLPYTFGGGTKLEIKR
Consider B1, for which the “phosphorylation of hIGF-1R as % of phosphorylation induced by IGF-1 (MCF-7, 10 µg/ml Ab)” value in assay [1] is under 10%. Also, the “ΔMFI (MCF-7, 4°C minus 37°C, 4 h)” value in assay [2] worked out at 322 MFI.

B2: m212A11 (antibody, V domains shown)
VH: B1 VH
VL: DIQMTQTTSSLSASLGDRVTISCRASQDINKYLNWYQQQPDGTVKLLIYYTSRLHSGVPSRFSGRGSGTDYSLTISNLEQEDIATYFCQQGSTLPYTFGGGTKLEIK
Regarding B2, the “inhibition of hIGF-1R phosphorylation in response to IGF-1 (MCF-7)” value (“inhibition of hIGF-1R phosphorylation” below) in assay [1] is over 80%.

B3: m214F8 (antibody, V domains shown)
VH: B1 VH with P9S, M20L, K63R
VL: B2 VL with I21F, N30S, V44I, S76T, T93A
Turning to B3, the “inhibition of hIGF-1R phosphorylation” value in assay [1] was over 80%.

B4: m208F2 (antibody, V domains shown)
VH: B1 VH with H35Y, I48L, G66D, S77N
VL: B2 VL with N30S, V44I, L78V
Turning to B4, in assay [1], the “inhibition of hIGF-1R phosphorylation” value is over 80%. In addition, in assay [3], the “% internalization (MCF-7, 10 µg/ml)” value amounted to 88% and the “ΔMFI (MCF-7, 4°C minus 37°C, 4 h)” value came out at 294 MFI.

B5: c214F8 (antibody, human IgG1, kappa)
heavy: not shown
light: DIQMTQTTSSLSASLGDRVTFSCRASQDISKYLNWYQQQPDGTIKLLIYYTSRLHSGVPSRFSGRGSGTDYSLTITNLEQEDIATYFCQQGSALPYTFGGGTKLEIKRTVAAPSVFIFPPSDEQLKSGTASVVCLLNNFYPREAKVQWKVDNALQSGNSQESVTEQDSKDSTYSLSSTLTLSKADYEKHKVYACEVTHQGLSSPVTKSFNRGEC
Regarding B5, the “phosphorylation of hIGF-1R as % of phosphorylation induced by IGF-1 (MCF-7, 10 µg/ml Ab)” value in assay [1] was under 10%. The “ΔMFI (MCF-7, 4°C minus 37°C, 4 h)” value in assay [2] amounted to 403 MFI.

B6: c213B10 (antibody, human IgG1, kappa)
heavy: not shown
light: B5 light with F21I
B6: in assay [1], the “phosphorylation of hIGF-1R as % of phosphorylation induced by IGF-1 (MCF-7, 10 µg/ml Ab)” value is under 10%. Besides, in assay [2], the “ΔMFI (MCF-7, 4°C minus 37°C, 4 h)” value amounted to 369 MFI.

B7: c219D6 (antibody, human IgG1, kappa, V domains shown)
VH: B1 VH with A16D, T28S, Y33F, A72T, S84N
VL: B1 VL with N30S
For the molecule B7, the “phosphorylation of hIGF-1R as % of phosphorylation induced by IGF-1 (MCF-7, 10 µg/ml Ab)” value in assay [1] is under 10%. Also, the “ΔMFI (MCF-7, 4°C minus 37°C, 4 h)” value in assay [2] is 353 MFI.

B8: m219D6 (antibody, V domains shown)
VH: B1 VH with A16D, T28S, Y33F, A72T, S84N
VL: B2 VL with N30S
For B8, the “inhibition of hIGF-1R phosphorylation” value in assay [1] is over 80%.

B9: c208F2 (antibody, human IgG1, kappa, V domains shown)
VH: B1 VH with H35Y, I48L, G66D, S77N
VL: B1 VL with N30S, V44I, L78V
As for B9, the “phosphorylation of hIGF-1R as % of phosphorylation induced by IGF-1 (MCF-7, 10 µg/ml Ab)” value in assay [1] is under 10%. Further, the “ΔMFI (MCF-7, 4°C minus 37°C, 4 h)” value in assay [2] came out at 288 MFI. In addition, in assay [3], the “% internalization (MCF-7, 10 µg/ml)” value amounted to 82% and the “ΔMFI (MCF-7, 4°C minus 37°C, 4 h)” value amounted to 278 MFI.

B10: m213B10 (antibody, V domains shown)
VH: B1 VH with P9S, K63R
VL: B2 VL with N30S, V44I, S76T, T93A
Consider B10, for which the “inhibition of hIGF-1R phosphorylation” value in assay [1] was over 80%.

B11: hz208F2 VH3/VL3 (antibody, human IgG1, kappa, V domains shown)
VH: QVQLVQSGAEVKKPGASVKMSCKASGYTFTSYYIYWVKQAPGQGLEWLGWIWPGDGSTKYNEKFQGRVTLTADKSSNTAYMFLSSLRSEDTAVYFCASPMITPNYAMDYWGQGTLVTVSS
VL: DIQMTQSPSSLSASVGDRVTISCRASQDISKYLNWYQQKPGKAPKLLIYYTSRLHSGVPSRFSGRGSGTDYSLTISNLQPEDFATYFCQQGSTLPYTFGGGTKVEIKR
With B11, in assay [3], the “% internalization (MCF-7, 10 µg/ml)” value amounted to 87% and the “ΔMFI (MCF-7, 4°C minus 37°C, 4 h)” value worked out at 344 MFI.

B12: m1613F12 (antibody, V domains shown)
VH: EVHLQQSGAELVKPGASVKLSCTASGFNIRDTYIHWVKQRPEQGLEWIGRLDPANGHTKYGPNFQGRATMTSDTSSNTAYLQLSSLTSEDTAVYYCARGAYYYGSSGLFYFDYWGQGTTLSVSS
VL: DVQITQSPSYLATSPGETITINCRASKSISKYLAWYQEKPGKTNKLLIYSGSTLQSGVPSRFSGSGSGTDFTLTISSLEPEDFAMYFCQQHHEYPLTFGAGTELELK
notes: Murine monoclonal antibody, detected with anti-mouse IgG; also called murine 1613F12; hybridoma I-4505
As a reminder, the EC50 (read off the curve) is the concentration that produces a half-maximal response. A lower EC50 (read off the curve) goes with greater potency. As to B12, the results for the 50% effective concentration (EC50 (read off the curve)) in assay [4], in assay [7] and in assay [8] were about 1 nM, about 900 pM and about 1 nM, respectively. Besides, the binding result in assay [5] and in assay [6] was “no binding (tested: log (M) -7.5 (about 3e-8 M))” each time.
